Test results from patent US20160031978.

Target: Δ144-273 tau (full-length tau with deletion of amino acids 144-273) (UniProt P10636)
Sequence (P10636 whole entry, looked up, stated change not applied, the tested form may be a part): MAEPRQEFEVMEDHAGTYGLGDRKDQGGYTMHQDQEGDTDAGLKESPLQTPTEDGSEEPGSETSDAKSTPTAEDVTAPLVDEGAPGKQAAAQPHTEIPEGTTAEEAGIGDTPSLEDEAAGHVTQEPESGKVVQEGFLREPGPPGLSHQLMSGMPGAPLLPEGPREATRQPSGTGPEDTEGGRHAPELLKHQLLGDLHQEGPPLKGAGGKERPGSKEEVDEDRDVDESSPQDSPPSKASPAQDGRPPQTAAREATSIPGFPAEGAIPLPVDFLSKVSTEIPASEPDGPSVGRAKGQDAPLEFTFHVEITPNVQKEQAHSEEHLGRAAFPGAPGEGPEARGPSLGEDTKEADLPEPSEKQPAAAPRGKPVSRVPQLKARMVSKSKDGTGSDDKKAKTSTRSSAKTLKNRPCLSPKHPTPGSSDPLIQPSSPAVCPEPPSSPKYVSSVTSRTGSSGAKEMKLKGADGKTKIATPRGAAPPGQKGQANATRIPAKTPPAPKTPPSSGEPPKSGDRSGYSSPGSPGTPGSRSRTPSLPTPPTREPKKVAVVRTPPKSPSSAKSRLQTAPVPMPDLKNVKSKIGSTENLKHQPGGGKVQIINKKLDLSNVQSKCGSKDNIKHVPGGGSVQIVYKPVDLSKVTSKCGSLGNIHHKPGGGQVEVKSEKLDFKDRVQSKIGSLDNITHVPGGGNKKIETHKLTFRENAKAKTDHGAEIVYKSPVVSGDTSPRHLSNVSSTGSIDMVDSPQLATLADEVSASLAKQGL

active fyn kinase
in vitro phosphorylation at Tyr18 (9G3/R1 immunoblot ratio): When compared to wild-type tau, AT8 tau and A144-273 tau had a slower rate and lower maximal level of phosphorylation at Tyr18
